Drawing on patent US20230287087A1, this text covers partial neutralization and neutralization by the trimer against the monomer for two substances.

The assay deals with Spike protein of patient-derived SARS-CoV-2 (D614G) (SARS-CoV-2) (UniProt P0DTC2). In words: cell-based or functional assay.

Turning to VHH-72 monomer, the partial neutralization is 170 nM.

Regarding VHH-72 ColXVIII trimer, the neutralization by the trimer against the monomer came to 10000 fold.
